These results are taken from paper PMC12859517.

The target in test [1] is Full-length MctBsm (MctB of M. smegmatis) (M. smegmatis). Nature of the test: SDS-PAGE under mild conditions with Western blot; 0.1% SDS in loading buffer, no reducing agent, not boiled, run in an ice bath; protein purified in OPOE; gel slices eluted with OPOE and run again.
Test [2] has the same target.

Some results are limits rather than exact numbers.

For orientation: stoichiometry N means a count of units in the complex or per binding partner. Regarding “Full-length MctBsm (MctB of M. smegmatis) (natural protein)”, the stoichiometry N in test [1] was above 2. In addition, in test [2], the channel insertions in lipid bilayer experiments (DphPC, 1 M KCl, 10 mM Hepes pH 7.0, 100 mV), purified MctBsm before fractionation was found to be 20 pS.
